± gives the uncertainty stated by the source.
B1: Far upstream element-binding protein 1, residues 98 to 169; numbered along this chain, Q96AE4 (parent)
chain: RSVMTEEYKVPDGMVGFIIGRGGEQISRIQQESGCKIQIAPDSGGLPERSCMLTGTPESVQSAKRLLDQIVE

Variants of: B1
Experiment: abundance fitness (aPCA) (normalised: wild type 0, dead -1); higher = more abundant; growth selection in yeast, the domain comes from the species named
Conditions: Homo sapiens

Abundance fitness, by site and new letter:
S59: Y -0.376 ± 0.05
V60: A -0.307 ± 0.03 | D -0.768 ± 0.06 | E -0.855 ± 0.044 | F -0.558 ± 0.069 | H -0.525 ± 0.059 | I 0.025 ± 0.045 | K -0.223 ± 0.036 | L -0.009 ± 0.03 | N -0.109 ± 0.047 | P -0.871 ± 0.075 | Q -0.174 ± 0.042 | R -0.006 ± 0.025 | S -0.57 ± 0.037 | T -0.13 ± 0.036 | W -0.999 ± 0.056 | Y -0.781 ± 0.07
Q61: A -0.003 ± 0.028 | C -0.003 ± 0.034 | D 0.003 ± 0.04 | E 0.052 ± 0.03 | F -0.031 ± 0.045 | G 0.001 ± 0.024 | H -0.051 ± 0.041 | I -0.029 ± 0.046 | L -0.003 ± 0.027 | M -0.007 ± 0.034 | N -0.021 ± 0.043 | P -0.463 ± 0.038 | R -0.002 ± 0.023 | S -0.009 ± 0.027 | T -0.002 ± 0.033 | V -0.035 ± 0.027 | W -0.058 ± 0.03 | Y -0.049 ± 0.04
S62: A -0.03 ± 0.026 | C 0.025 ± 0.038 | E -0.004 ± 0.029 | F -0.071 ± 0.04 | G -0.01 ± 0.024 | H -0.01 ± 0.038 | I -0.082 ± 0.053 | K 0.005 ± 0.033 | N -0.005 ± 0.041 | P -0.727 ± 0.041 | Q -0.019 ± 0.031 | R -0.017 ± 0.023 | T -0.005 ± 0.029 | V 0.012 ± 0.027 | W -0.059 ± 0.029 | Y -0.066 ± 0.041
A63: C 0.024 ± 0.036 | D -0.633 ± 0.05 | E -0.815 ± 0.047 | F -0.941 ± 0.093 | G -0.069 ± 0.023 | H -1.09 ± 0.089 | I -0.328 ± 0.043 | K -1.04 ± 0.069 | L -0.41 ± 0.028 | N -0.91 ± 0.078 | P -0.805 ± 0.046 | S -0.261 ± 0.029 | T -0.303 ± 0.032 | V -0.246 ± 0.027 | W -1.31 ± 0.079 | Y -1.05 ± 0.11
K64: A -0.078 ± 0.027 | C -0.137 ± 0.038 | D -0.634 ± 0.047 | E -0.15 ± 0.03 | F -0.254 ± 0.043 | G -0.179 ± 0.025 | H -0.136 ± 0.041 | I -0.097 ± 0.04 | L -0.231 ± 0.026 | N -0.274 ± 0.043 | P -0.781 ± 0.041 | Q -0.104 ± 0.033 | R -0.015 ± 0.023 | S -0.126 ± 0.026 | T -0.065 ± 0.03 | V -0.09 ± 0.026 | W -0.252 ± 0.03
R65: C -0.029 ± 0.036 | D -0.043 ± 0.036 | E -0.015 ± 0.031 | F 0.017 ± 0.039 | G -0.027 ± 0.023 | H -0.025 ± 0.036 | I -0.051 ± 0.038 | K -0.006 ± 0.034 | L -0.024 ± 0.026 | N -0.008 ± 0.039 | P -0.464 ± 0.034 | Q -0.02 ± 0.031 | S -0.034 ± 0.027 | T -0.019 ± 0.032 | V -0.002 ± 0.026 | W -0.082 ± 0.028 | Y -0.053 ± 0.039
L66: A -0.076 ± 0.029 | C 0 ± 0.034 | D -0.127 ± 0.035 | E -0.017 ± 0.028 | F -0.087 ± 0.04 | H -0.05 ± 0.039 | I -0.045 ± 0.039 | M -0.006 ± 0.033 | N -0.108 ± 0.039 | P -0.684 ± 0.04 | R -0.053 ± 0.024 | S -0.029 ± 0.026 | V -0.11 ± 0.026 | W -0.123 ± 0.027 | Y -0.079 ± 0.04
L67: C -0.161 ± 0.034 | D -0.412 ± 0.041 | E -0.54 ± 0.03 | F -0.121 ± 0.038 | G -0.583 ± 0.026 | H -0.592 ± 0.06 | I 0.008 ± 0.04 | K -0.653 ± 0.042 | M -0.107 ± 0.035 | N -0.501 ± 0.064 | P -0.484 ± 0.039 | Q -0.575 ± 0.045 | R -0.777 ± 0.029 | S -0.648 ± 0.033 | T -0.534 ± 0.037 | V -0.145 ± 0.026 | W -0.94 ± 0.038 | Y -0.815 ± 0.072
D68: A 0.004 ± 0.026 | C -0.065 ± 0.035 | E -0.023 ± 0.03 | F -0.052 ± 0.041 | G 0.014 ± 0.023 | H -0.045 ± 0.043 | I -0.093 ± 0.04 | K -0.001 ± 0.032 | L -0.064 ± 0.026 | M -0.011 ± 0.032 | N -0.025 ± 0.033 | P -0.544 ± 0.037 | Q -0.058 ± 0.034 | R -0.019 ± 0.023 | S -0.012 ± 0.026 | T -0.034 ± 0.03 | V -0.078 ± 0.026 | W -0.042 ± 0.032
Q69: A -0.006 ± 0.026 | C -0.079 ± 0.033 | E 0.023 ± 0.03 | F -0.097 ± 0.036 | G -0.002 ± 0.023 | H -0.041 ± 0.047 | I -0.054 ± 0.036 | K -0.004 ± 0.033 | L -0.065 ± 0.024 | N -0.02 ± 0.038 | P -0.097 ± 0.034 | R -0.009 ± 0.022 | S -0.018 ± 0.026 | T -0.029 ± 0.03 | V -0.014 ± 0.026
